Laboratory results reported in US20260242735A1 (UNIVERSIT T BASEL, published 2026).

Key:
[1] = target: human CD33 extracellular region N20G (human, UniProt P20138 21-259); assay: BLI Octet, IgG captured on AHC, CD33 analyte;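 also: CD33 variants and wild type run as analyte at 5, 50 and 500 nM, 700 s association then 1200 s dissociation, buffer-only reference subtracted, global 1:1 fit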
Description: (§1) Human CD33 wt and variants, were used as analyte at 3 different concentrations (500, 50 and 5 nM). Association of the analyte to the antibodies was monitored for 700 s and dissociation of the analyte from the antibodies was monitored for 1200 s. Reference subtraction was performed against buffer only wells. AHC tips were regenerated using 10 mM Glycine-HCl pH 1.7. Data were analyzed with Octet Data Analysis software HT 12.0. Data were fitted to a 1:1 binding model. Kinetic rates ka and kd and response signal were globally fitted.

[2] = target: human CD33 extracellular region N20D (human, UniProt P20138 21-259); assay: BLI Octet, IgG captured on AHC, CD33 analyte;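 also: CD33 variants and wild type run as analyte at 5, 50 and 500 nM, 700 s association then 1200 s dissociation, buffer-only reference subtracted, global 1:1 fit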
Chain of human CD33 extracellular region N20D (P20138 other isoform, or with tags, fused parts or gaps N20D N20D): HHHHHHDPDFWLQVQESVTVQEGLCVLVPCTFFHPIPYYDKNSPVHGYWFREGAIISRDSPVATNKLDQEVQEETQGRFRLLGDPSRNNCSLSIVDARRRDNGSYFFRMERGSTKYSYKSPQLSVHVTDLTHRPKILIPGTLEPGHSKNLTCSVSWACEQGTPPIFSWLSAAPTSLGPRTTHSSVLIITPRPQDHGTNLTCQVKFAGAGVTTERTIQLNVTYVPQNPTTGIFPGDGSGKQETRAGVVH
Description: as §1

[3] = target: human CD33 extracellular region N20E (human, UniProt P20138 21-259); assay: BLI Octet, IgG captured on AHC, CD33 analyte;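 also: CD33 variants and wild type run as analyte at 5, 50 and 500 nM, 700 s association then 1200 s dissociation, buffer-only reference subtracted, global 1:1 fit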
Chain of human CD33 extracellular region N20E (P20138 other isoform, or with tags, fused parts or gaps N20E N20E): as the sequence (P20138 other isoform, or with tags, fused parts or gaps N20D N20D) above, with D9E counted along it
Description: as §1

[4] = target: human CD33 extracellular region N20V (human, UniProt P20138 21-259); assay: BLI Octet, IgG captured on AHC, CD33 analyte;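 also: CD33 variants and wild type run as analyte at 5, 50 and 500 nM, 700 s association then 1200 s dissociation, buffer-only reference subtracted, global 1:1 fit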
Chain of human CD33 extracellular region N20V (P20138 other isoform, or with tags, fused parts or gaps N20V N20V): as the sequence (P20138 other isoform, or with tags, fused parts or gaps N20D N20D) above, with D9V counted along it
Description: as §1

[5] = target: human CD33 extracellular region N20H (human, UniProt P20138 21-259); assay: BLI Octet, IgG captured on AHC, CD33 analyte
Chain of human CD33 extracellular region N20H (P20138 other isoform, or with tags, fused parts or gaps N20H N20H): as the sequence (P20138 other isoform, or with tags, fused parts or gaps N20D N20D) above, with D9H counted along it
Description: as §1

[6] = target: human CD33 extracellular region F21V (human, UniProt P20138 22-259); assay: BLI Octet, IgG captured on AHC, CD33 analyte
Chain of human CD33 extracellular region F21V (P20138 other isoform, or with tags, fused parts or gaps F21V F21V): as the sequence (P20138 other isoform, or with tags, fused parts or gaps N20D N20D) above, with D9N, F10V counted along it
Description: as §1

[7] = target: human CD33 extracellular region W22R (human, UniProt P20138 18-259); assay: BLI Octet, IgG captured on AHC, CD33 analyte
Chain of human CD33 extracellular region W22R (P20138 other isoform, or with tags, fused parts or gaps W22R W22R): as the sequence (P20138 other isoform, or with tags, fused parts or gaps N20D N20D) above, with D9N, W11R counted along it
Description: as §1

[8] = target: human CD33 extracellular region W22K (human, UniProt P20138 18-259); assay: BLI Octet, IgG captured on AHC, CD33 analyte
Chain of human CD33 extracellular region W22K (P20138 other isoform, or with tags, fused parts or gaps W22K W22K): as the sequence (P20138 other isoform, or with tags, fused parts or gaps N20D N20D) above, with D9N, W11K counted along it
Description: as §1

[9] = target: human CD33 extracellular region W22H (human, UniProt P20138 18-259); assay: BLI Octet, IgG captured on AHC, CD33 analyte
Chain of human CD33 extracellular region W22H (P20138 other isoform, or with tags, fused parts or gaps W22H W22H): as the sequence (P20138 other isoform, or with tags, fused parts or gaps N20D N20D) above, with D9N, W11H counted along it
Description: as §1

[10] = target: human CD33 extracellular region Q24R (human, UniProt P20138 18-259); assay: BLI Octet, IgG captured on AHC, CD33 analyte
Chain of human CD33 extracellular region Q24R (P20138 other isoform, or with tags, fused parts or gaps Q24R Q24R): as the sequence (P20138 other isoform, or with tags, fused parts or gaps N20D N20D) above, with D9N, Q13R counted along it
Description: as §1

[11] = target: human CD33 extracellular region F43S (human, UniProt P20138 18-259); assay: BLI Octet, IgG captured on AHC, CD33 analyte
Chain of human CD33 extracellular region F43S (P20138 other isoform, or with tags, fused parts or gaps F43S F43S): as the sequence (P20138 other isoform, or with tags, fused parts or gaps N20D N20D) above, with D9N, F32S counted along it
Description: as §1

[12] = target: human CD33 extracellular region Y50D (human, UniProt P20138 18-259); assay: BLI Octet, IgG captured on AHC, CD33 analyte
Chain of human CD33 extracellular region Y50D (P20138 other isoform, or with tags, fused parts or gaps Y50D Y50D): as the sequence (P20138 other isoform, or with tags, fused parts or gaps N20D N20D) above, with D9N, Y39D counted along it
Description: as §1

[13] = target: human CD33 extracellular region Y50R (human, UniProt P20138 18-259); assay: BLI Octet, IgG captured on AHC, CD33 analyte
Chain of human CD33 extracellular region Y50R (P20138 other isoform, or with tags, fused parts or gaps Y50R Y50R): as the sequence (P20138 other isoform, or with tags, fused parts or gaps N20D N20D) above, with D9N, Y39R counted along it
Description: as §1

[14] = target: human CD33 extracellular region Y50E (human, UniProt P20138 18-259); assay: BLI Octet, IgG captured on AHC, CD33 analyte
Chain of human CD33 extracellular region Y50E (P20138 other isoform, or with tags, fused parts or gaps Y50E Y50E): as the sequence (P20138 other isoform, or with tags, fused parts or gaps N20D N20D) above, with D9N, Y39E counted along it
Description: as §1

[15] = target: human CD33 extracellular region N100Q (human, UniProt P20138 18-259); assay: BLI Octet, IgG captured on AHC, CD33 analyte
Chain of human CD33 extracellular region N100Q (P20138 other isoform, or with tags, fused parts or gaps N100Q N100Q): as the sequence (P20138 other isoform, or with tags, fused parts or gaps N20D N20D) above, with D9N, N89Q counted along it
Description: as §1

[16] = target: human CD33 extracellular region R119A (human, UniProt P20138 18-259); assay: BLI Octet, IgG captured on AHC, CD33 analyte
Chain of human CD33 extracellular region R119A (P20138 other isoform, or with tags, fused parts or gaps R119A R119A): as the sequence (P20138 other isoform, or with tags, fused parts or gaps N20D N20D) above, with D9N, R108A counted along it
Description: as §1

human CD33 F44V = human CD33 F44V (human, UniProt P20138 18-364); assay: flow cytometry on transfected cells, IgG
Description: (§2) An alanine scan on human CD33 was performed to the determine the residues on CD33 that are involved in binding to the antibodies investigated. […] Briefly, a mutation library of CD33 was created by high-throughput, site-directed mutagenesis. Each residue was individually mutated to alanine, with alanine codons mutated to serine. The mutant library was arrayed in 384-well microplates and transiently transfected into HEK293-T. Following transfection, cells were incubated with the indicated antibodies (IgG or Fab) at concentrations pre-determined using an independent immunofluorescence titration curve on wild type CD33. […] Binding of each antibody to each mutant clone was determined in duplicates. For each point, background fluorescence was subtracted from the raw data, which were then normalized to antibody reactivity with wild type CD33.
(§3) Antibodies were screened for binding to the human CD33 variants in IgG format. […] For each mutation, background fluorescence was subtracted from the raw data, which were then normalized to antibody reactivity with wild-type CD33.

human CD33 F44I = human CD33 F44I (human, UniProt P20138 18-364); assay: flow cytometry on transfected cells, IgG
Description: as §2, §3

human CD33 P46S = human CD33 P46S (human, UniProt P20138 18-364); assay: flow cytometry on transfected cells, IgG
Description: as §2, §3

human CD33 P46L = human CD33 P46L (human, UniProt P20138 18-364); assay: flow cytometry on transfected cells, IgG
Description: as §2, §3

human CD33 P46D = human CD33 P46D (human, UniProt P20138 18-364); assay: flow cytometry on transfected cells, IgG
Description: as §2, §3

human CD33 I47S = human CD33 I47S (human, UniProt P20138 18-364); assay: flow cytometry on transfected cells, IgG
Description: as §2, §3

human CD33 I47V = human CD33 I47V (human, UniProt P20138 18-364); assay: flow cytometry on transfected cells, IgG
Description: as §2, §3

human CD33 I47R = human CD33 I47R (human, UniProt P20138 18-364); assay: flow cytometry on transfected cells, IgG
Description: as §2, §3

human CD33 I47P = human CD33 I47P (human, UniProt P20138 18-364); assay: flow cytometry on transfected cells, IgG
Description: as §2, §3

human CD33 P48H = human CD33 P48H (human, UniProt P20138 18-364); assay: flow cytometry on transfected cells, IgG
Description: as §2, §3

human CD33 P48I = human CD33 P48I (human, UniProt P20138 18-364); assay: flow cytometry on transfected cells, IgG
Description: as §2, §3

human CD33 P48F = human CD33 P48F (human, UniProt P20138 18-364); assay: flow cytometry on transfected cells, IgG
Chain of human CD33 P48F (P20138 18-364 P48F limits assumed): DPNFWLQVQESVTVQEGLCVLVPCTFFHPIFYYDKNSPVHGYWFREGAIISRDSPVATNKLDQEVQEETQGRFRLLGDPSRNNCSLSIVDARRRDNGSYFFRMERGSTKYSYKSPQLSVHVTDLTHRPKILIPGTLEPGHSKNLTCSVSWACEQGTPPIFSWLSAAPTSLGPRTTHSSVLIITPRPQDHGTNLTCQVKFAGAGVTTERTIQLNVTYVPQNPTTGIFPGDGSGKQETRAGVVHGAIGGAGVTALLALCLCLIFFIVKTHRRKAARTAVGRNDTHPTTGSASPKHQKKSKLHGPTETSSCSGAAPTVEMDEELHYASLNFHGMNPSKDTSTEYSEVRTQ
Description: as §2, §3

human CD33 P48Y = human CD33 P48Y (human, UniProt P20138 18-364); assay: flow cytometry on transfected cells, IgG
Description: as §2, §3

human CD33 P48W = human CD33 P48W (human, UniProt P20138 18-364); assay: flow cytometry on transfected cells, IgG
Description: as §2, §3

human CD33 Y49P = human CD33 Y49P (human, UniProt P20138 18-364); assay: flow cytometry on transfected cells, IgG
Chain of human CD33 Y49P (P20138 18-364 Y49P limits assumed): as the sequence (P20138 18-364 P48F limits assumed) above, with F31P, Y32P counted along it
Description: as §2, §3

human CD33 Y49R = human CD33 Y49R (human, UniProt P20138 18-364); assay: flow cytometry on transfected cells, IgG
Description: as §2, §3

human CD33 Y49G = human CD33 Y49G (human, UniProt P20138 18-364); assay: flow cytometry on transfected cells, IgG
Description: as §2, §3

human CD33 Y50P = human CD33 Y50P (human, UniProt P20138 18-364); assay: flow cytometry on transfected cells, IgG
Description: as §2, §3

Chain of human CD33 extracellular region N20G (P20138 other isoform, or with tags, fused parts or gaps N20G N20G): as the sequence (P20138 other isoform, or with tags, fused parts or gaps N20D N20D) above, with D9G counted along it

B1: Refmab #1 (antibody, human IgG1, V domains shown)
VH: EVQLVQSGAEVKKPGSSVKVSCKASGYTITDSNIHWVRQAPGQSLEWIGYIYPYNGGTDYNQKFKNRATLTVDNPTNTAYMELSSLRSEDTAFYYCVNGNPWLAYWGQGTLVTVSS
VL: DIQLTQSPSTLSASVGDRVTITCRASESLDNYGIRFLTWFQQKPGKAPKLLMYAASNQGSGVPSRFSGSGSGTEFTLTISSLQPDDFATYYCQQTKEVPWSFGQGTKVEVK
notes: also called hP67.6; Absolute Antibody Cat. No. Ab00283-10.0
[1]
  % WT binding: 0%
[2]
  % WT binding: 0%
[3]
  % WT binding: 3.46%
[4]
  % WT binding: 18.6%
[5]
  % WT binding: 67%
[6]
  % WT binding: 0%
[7]
  % WT binding: 26.4%
[8]
  % WT binding: 0%
[9]
  % WT binding: 106%
[10]
  % WT binding: 67.9%
[11]
  % WT binding: 104%
[12]
  % WT binding: 71.5%
[13]
  % WT binding: 73.3%
[14]
  % WT binding: 101%
[15]
  % WT binding: 107%
[16]
  % WT binding: 121%

B2: Refmab #6 (antibody, human IgG1, V domains shown)
VH: QVQLQQPGAEVVKPGASVKMSCKASGYTFTSYYIHWIKQTPGQGLEWVGVIYPGNDDISYNQKFQGKATLTADKSSTTAYMQLSSLTSEDSAVYYCAREVRLRYFDVWGQGTTVTVSS
VL: EIVLTQSPGSLAVSPGERVTMSCKSSQSVFFSSSQKNYLAWYQQIPGQSPRLLIYWASTRESGVPDRFTGSGSGTDFTLTISSVQPEDLAIYYCHQYLSSRTFGQGTKLEIK
Human CD33 F44V
  Mean % WT Binding: 98.9 % WT binding
Human CD33 F44I
  Mean % WT Binding: 93.1 % WT binding
Human CD33 P46S
  Mean % WT Binding: 110 % WT binding
Human CD33 P46L
  Mean % WT Binding: 107 % WT binding
Human CD33 P46D
  Mean % WT Binding: 104 % WT binding
Human CD33 I47S
  Mean % WT Binding: 91 % WT binding
Human CD33 I47V
  Mean % WT Binding: 101 % WT binding
Human CD33 I47R
  Mean % WT Binding: 96.9 % WT binding
Human CD33 I47P
  Mean % WT Binding: 114 % WT binding
Human CD33 P48H
  Mean % WT Binding: 94.4 % WT binding
Human CD33 P48I
  Mean % WT Binding: 102 % WT binding
Human CD33 P48F
  Mean % WT Binding: 93.8 % WT binding
Human CD33 P48Y
  Mean % WT Binding: 79.1 % WT binding
Human CD33 P48W
  Mean % WT Binding: 87.2 % WT binding
Human CD33 Y49P
  Mean % WT Binding: 117 % WT binding
Human CD33 Y49R
  Mean % WT Binding: 101 % WT binding
Human CD33 Y49G
  Mean % WT Binding: 121 % WT binding
Human CD33 Y50P
  Mean % WT Binding: 98.1 % WT binding

B3: Refmab #5 (antibody, human IgG1, V domains shown)
VH: QVQLVQSGAEVKKPGASVKVSCKASGYTFTNYDINWVRQAPGQGLEWIGWIYPGDGSTKYNEKFKAKATLTADTSTSTAYMELRSLRSDDTAVYYCASGYEDAMDYWGQGTTVTVSS
VL: DIQMTQSPSSLSASVGDRVTINCKASQDINSYLSWFQQKPGKAPKTLIYRANRLVDGVPSRFSGSGSGQDYTLTISSLQPEDFATYYCLQYDEFPLTFGGGTKVEIK
Human CD33 F44V
  Mean % WT Binding: 97.7 % WT binding
Human CD33 F44I
  Mean % WT Binding: 106 % WT binding
Human CD33 P46S
  Mean % WT Binding: 98.7 % WT binding
Human CD33 P46L
  Mean % WT Binding: 87.2 % WT binding
Human CD33 P46D
  Mean % WT Binding: 76 % WT binding
Human CD33 I47S
  Mean % WT Binding: 98.2 % WT binding
Human CD33 I47V
  Mean % WT Binding: 104 % WT binding
Human CD33 I47R
  Mean % WT Binding: 94.6 % WT binding
Human CD33 I47P
  Mean % WT Binding: 4.9 % WT binding
Human CD33 P48H
  Mean % WT Binding: 7.4 % WT binding
Human CD33 P48I
  Mean % WT Binding: 4 % WT binding
Human CD33 P48F
  Mean % WT Binding: 6 % WT binding
Human CD33 P48Y
  Mean % WT Binding: 1.5 % WT binding
Human CD33 P48W
  Mean % WT Binding: 2.2 % WT binding
Human CD33 Y49P
  Mean % WT Binding: 2.2 % WT binding
Human CD33 Y49R
  Mean % WT Binding: 1 % WT binding
Human CD33 Y49G
  Mean % WT Binding: 0.8 % WT binding
Human CD33 Y50P
  Mean % WT Binding: 43.4 % WT binding

B4: Refmab #4 (antibody, human IgG1, V domains shown)
VH: QVQLVQSGAEVKKPGESVKVSCKASGYTFTNYGMNWVKQAPGQGLEWMGWINTYTGEPTYADKFQGRVTMTTDTSTSTAYMEIRNLGGDDTAVYYCARWSWSDGYYVYFDYWGQGTSVTVSS
VL: DIVMTQSPDSLTVSLGERTTINCKSSQSVLDSSTNKNSLAWYQQKPGQPPKLLLSWASTRESGIPDRFSGSGSGTDFTLTIDSPQPEDSATYYCQQSAHFPITFGQGTRLEIK
[1]
  % WT binding: 115%
[2]
  % WT binding: 91.3%
[3]
  % WT binding: 100%
[4]
  % WT binding: 96.5%
[5]
  % WT binding: 104%
[6]
  % WT binding: 101%
[7]
  % WT binding: 82.8%
[8]
  % WT binding: 113%
[9]
  % WT binding: 112%
[10]
  % WT binding: 102%
[11]
  % WT binding: 80%
[12]
  % WT binding: 0%
[13]
  % WT binding: 0%
[14]
  % WT binding: 16%
[15]
  % WT binding: 114%
[16]
  % WT binding: 95%

B5: Refmab #3 (antibody, human IgG1, V domains shown)
VH: QVQLVQSGAEVKKPGSSVKVSCKASGYTFTDYNMHWVRQAPGQGLEWIGYIYPYNGGTGYNQKFKSKATITADESTNTAYMELSSLRSEDTAVYYCARGRPAMDYWGQGTLVTVSS
VL: DIQMTQSPSSLSASVGDRVTITCRASESVDNYGISFMNWFQQKPGKAPKLLIYAASNQGSGVPSRFSGSGSGTDFTLTISSLQPDDFATYYCQQSKEVPWTFGQGTKVEIK
[1]
  % WT binding: 0%
[2]
  % WT binding: 0%
[3]
  % WT binding: 6.04%
[4]
  % WT binding: 6.34%
[5]
  % WT binding: 0%
[6]
  % WT binding: 0%
[7]
  % WT binding: 0%
[8]
  % WT binding: 0%
[9]
  % WT binding: 55%
[10]
  % WT binding: 88.4%
[11]
  % WT binding: 64.8%
[12]
  % WT binding: 71%
[13]
  % WT binding: 70.5%
[14]
  % WT binding: 120%
[15]
  % WT binding: 124%
[16]
  % WT binding: 118%
